experiment: yeast display, Sf9 membrane polyspecificity reagent, FACS + sequencing; frameworks hold sequencing errors
Outline: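 Synthetic nanobody libraries on Saccharomyces cerevisiae BJ5465 were galactose-induced for 36–48 hours, stained 1 hour at 4 °C with 10% biotinylated, detergent-solubilized Sf9 membrane reagent and enriched on streptavidin microbeads. FACS then separated cells into low and high (top ~1%) gates by anti-HA (expression) and streptavidin (reagent binding) fluorescence. Genes were colony-PCR amplified, MiSeq 2 × 250 sequenced and CDR-length filtered. A clone's polyreactivity label is that of its gate of origin.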

Row | Sequence | polyreactivity (PSR sort gate)
1 | QVQLVESGGGLVQAGGSLRLSCAASGFIFQYYAMGWYRQAPGKERELVAAITPSGTSTYYADSVKGRFTISRDNAKNTVYLQMNSLKPEDTAVYYCAAYYRYASDYWGQGTQVTVSS | low polyreactivity
2 | QVQLVESGGGLVQAGGRLRLSCAASGSTFQFYAMGWYRQAPGKERELVAAITSSGSSTYYADSVKGRFTISRDNAKNTVYLQMNSLKPEDTAVYYCAARYYGYSVSYYYWGQGTQVTVSS | high polyreactivity
3 | QVQLVESGGGLVQAGGSLRLSCAASGRIFQGYAMGWYRQAPGKERELVAAITLSGGSTYYADSVKGRFTISRDHAKNTVYLQMNSLKPEDTAVYYCNAYYPDEPSLYDYWGQVTQVTVSS | low polyreactivity
4 | QVQLVESGGGLVQAGGSLRLSCAASGSTFDYNAMGWYRQAPGKERELVAAISARGTSTYYADSVKGRFTISRDNAKTTVYLQMNSLKPEDTAVYYCAARIHTAYYIFGYWGQGTQVTVSS | high polyreactivity
5 | QVQLVESGGGLVQAGGSLRLSCAASGSIFTYYAMGWYRQAPGKERELVAAISWRSGSTYYADSVKGRFTISRDNAKNTVYLQMNSLKPEDTAVYYCAAEDFDYAVWYDYWGQGTQVTVSS | high polyreactivity
6 | QVQLVESGGCLVQAGGSLRLTCAASGSTFGYEGRGWYRQAPGKERELVASIDSRCDSTYADSVKGRFTISRDNAKNTVYLQMNSLKPEDTAVYYCAADSWYTWFDSWGQGTQVTVSS | low polyreactivity
7 | QVQLVESGGGLDQAGGSLRLSCAASGRTFIRNVMGWYRQAPGKERELVAGITGGGNTYYADSVKGRFTISRDNAKNTVYLQMNSLKPEDTAVYYCAVRYPSYGLSYVRYGYWGQGTQVTVSS | high polyreactivity
8 | QVQLVESGGGLVHAGRSLRLSCAASGFIFVRNAMGWYRQAPGKERELVAAITRSGGSTSYADSVKGRFTISRDNEKNTVYLQMNSLKPEDTAVYYCAAQYGYWGQGTQVTVSS | high polyreactivity
9 | QVQLVESGGGLVQAGGSLRLSCAASGSTFPLYAMGWYRQAAGKEWELVAAITSGGGNTYYADSVKGRFTISRDNAKNTVYLQMNSLKPEDTAVYYCAAVGGYKSYYSYEYDYWGQGTQETVSS | low polyreactivity
10 | QVQLVESGGGLVQAGGSLRLSCAASGITFASYAMGWYRQAPGKERELVAVITRSTGRTYYADSVKGRFTISRDNAKNTVYLQMNSLKPEDTAVYYCAAGYITWYDYWGQGTQVTVSS | high polyreactivity
11 | QVQLVESGGGLVQAGGSLRLSCAASGFIFDKYAMGWYRQAPGKERELVAAINWSGDSTYYADSVKGRFTISRDNAKNTVYLQMNSLKPEDTAVYYCNARRPRFRYDYWGQGTQVTVSS | high polyreactivity
12 | QVQLVESGGGLVKAGVSLRLSCAASGSIFVGYAMGWYRQAPGKERELVAAIRSGGSTKYADSVKGRFTISRDNAKNTVYLQMNSLKPEDTAVYYCNVEVHPYYWVDNFHRYPVLHNYWGQGTQVTVSS | low polyreactivity
13 | QVQLGESGGGIVQAGGSLRLSCAASGIIFARYAMGWSRQAPGKERELVAAISRRGTSTYYADSVKGRFTISRDNAKNTVYLQMNSLKPEDTALYYCAARQLFYLPGPRVDAWGQGTQVTVSS | high polyreactivity
14 | QVQLVESGGGLVQAGGSLRLSCAASGFTCARYALGWYRQAPGQERELVASITWNGGRTYYAASVKGRFTISRDNAKNTVYLQMNSLKPEDTAVYYCAKDTRYTRYEYWGQGTQVTVSS | high polyreactivity
15 | QVQLVESGGGLVQAGGSLRLSCAASGLIFWAYAMGWYRQAPGTDRELVAAINWRGGSTYYADSVKGRFTISRDTAKNTVYLQMNSLKPEDTAVYYCAADSYYDEYDYWGQGTQVTVSS | low polyreactivity
16 | QVQLVDSGGGLVQAGGRLRLSCAASGSIYAAYTMGRYRQAPGKERELVAAISVSTVSTYYADSVKGRFTISRDNAKNTVYLQMNSLKPDDTAVYYCNADATYSYPEKDEPDSWGQGTQVTVSS | low polyreactivity

Row | Sequence | polyreactivity (PSR sort gate)
17 | QVQLVESGGGLVQAGGSLRLSCAASVRIFPHKAMGWYIQAPGKERELVAAISSNGGSTYYADSVKGRFTISRDNAKNTVYLQMNSLKPEDTAVYYCAKYRYFAGDGDYWGQGTQVTVSS | low polyreactivity
18 | QVQLVESGGGLVQAGGSLRLSCAASGRIFASYAMGWYRQAPGKERELVAAISWGDDSTYYADSVKGRFTISRDNAKNTVYLQMNSLKPEDTAVYYCAAAFWFGPYRLYYWGQGTQVTVSS | high polyreactivity
19 | QDQLEESGGGLVQAGGSLRLSCAASGSTCVKYARGWYRPAPGKERELVAAISTRGGTTYYADSVKGRFTISRDNAKNTVYLQMNSLKPEDTAVYYCATGSYSRGVAYGYWGQGTQVTVSS | high polyreactivity
20 | QVQLVESGGGLVQARGSLRLSCAASGIIFYSYAMGWYRQAPGKEREFVAAITNSDGSTYYADSVKGRFTISRDNAKNTVYLQMNSLKPEDTAVYMYYWGQGTQVTVSS | low polyreactivity
21 | QVQLVESGGGLVQAGGSLRLTSDASGFTFRSNAMGWYRQAPGKERELVAAITSRGGSTYYADSVKGRFTISRDYAKNTVYLQMNSLKPEDTAVYYCAADGRSRKFDYWGQGTQVTVSS | high polyreactivity
22 | QVQIVESGGGLFQAGGSLRLICAASGRIFGNYSMGSSRQEPGKEREFVAAIDWSGGTTYYADSVKGPFTISRDNAKNTVYLQMNSLKPEDTEVYYCAAKYVYSVGNYRYDYWGQGTEVTVSS | low polyreactivity
23 | QVQLVESGGGLVQAGGSLRLSCAASGRTFDYNAMGWYRQAPGKEWELVADIRLISGNTYYADSVKGRFTISRDNAKNTVYLQMNSLKPEETAVYYCAATSDGVPSLYGGMDYRGQGTQVTVSS | low polyreactivity
24 | QVQIEESGGCLVQAGGSLRLSCAASGNTFFKYNMGWSRQAPRKERELVAAITWSGGSTSYADSVKGRFTISRDNAKNTVYLQMNSLKPEDTAVYYCAAAWSHSRWDTHDYWGQGTQVTVSS | low polyreactivity
25 | LVLLVESGGGLVQAGGSLRLSCAASGFSFACYGMGWYRQAPGNDRELVAALSWSGGRTYYADSVTGRFTISRDNAKNTVYLQMNSLKPEDTAVDYCYAYWNPASKYDFWGQGTQVTVTS | high polyreactivity
26 | QVQIVESGGGLVQAGGSLRISCAASGRTYRFYAMGWYRQAPGKERELVAAISSGGSTYYADSVKGRFTISRDNAKNTVYLQMNSLNPEDTAVYYCAAQRWRGASLYDYWGQGTQVTVSS | high polyreactivity
27 | QVQLVESGGGLDQAGGSLRLSCAASGSTFQVNVMAWYRQAPGKEREFVAGISYSGGSTYYADSVKGRFTISRDNAKNTVYLQMNSLKPEDTAVYYCAAEEDYNIAGSWTYTYDYWGQGTQVTVSS | low polyreactivity
28 | QVQLVESGGGLVQAGGSLRLSCAASGNIFESYCMGWYRQAPGKERELVATINTSSGSTYYADSVKGRFTISRDTAKNTVYLQMNSLKPEDTAVYYCAAEWYPYPWGYGYWGQGTQVTVSS | low polyreactivity
29 | QVQLVESGGGLVQAGGSLRLSCAASGSTFYENAMVWSRQAPGKDRELVAAISRSTGRTYYADSVKGRFTISRDNAKNTVYLQMNSLKPEDTAVYYCAARVYGRMYFWGQGTQVTVSS | high polyreactivity
30 | QVQLVESGGGLVQAGGSLRLSCAASGSTFLRYTMGWYRQAPGTERELVAAISPSAGSTYYADSVKGRFTISRDNAKNSVYLQMNSLTPEDTAVYYCAAKRGSVSRPDYGANDESWGQGTQVTVSS | high polyreactivity
31 | QVQLVESGGGLVQAGGSLRLSCAASGSTFVAYAMGWYRQAPGKERELVAAISASGVRTYYADSVKGRFTISRDNAKNTVYLQMNSLKPEDTAVYYCAATVFRKYRYGYWGQGTQVTVSS | high polyreactivity
32 | QVQLVESGGGLVQAGGSLRLSCAASGFIFNHYRMGWYRPAPGKEREFVAAISWSGGSTYYADSVKGRFTISRDNAKNTVYLQMNSLKPEDTAVYYCAASYNGLWHGDYDYWGQGTQVTVSS | low polyreactivity
